From patent US20150197564A1 (Regeneron, published 2015)

What was measured:
Experiment in all cases: SPR Biacore, antigen captured, 37C, pH 7.4, HBS-EP
mANGPTL3(17-455)-His = target: T1, mANGPTL3(17-455)-His (Mus musculus, UniProt Q9R182 17-455)
T1 construct: Bought protein (R&D Systems); also called full-length mature ANGPTL3 from Mus musculus with a C-terminal decahistidine tag
T1 sequence: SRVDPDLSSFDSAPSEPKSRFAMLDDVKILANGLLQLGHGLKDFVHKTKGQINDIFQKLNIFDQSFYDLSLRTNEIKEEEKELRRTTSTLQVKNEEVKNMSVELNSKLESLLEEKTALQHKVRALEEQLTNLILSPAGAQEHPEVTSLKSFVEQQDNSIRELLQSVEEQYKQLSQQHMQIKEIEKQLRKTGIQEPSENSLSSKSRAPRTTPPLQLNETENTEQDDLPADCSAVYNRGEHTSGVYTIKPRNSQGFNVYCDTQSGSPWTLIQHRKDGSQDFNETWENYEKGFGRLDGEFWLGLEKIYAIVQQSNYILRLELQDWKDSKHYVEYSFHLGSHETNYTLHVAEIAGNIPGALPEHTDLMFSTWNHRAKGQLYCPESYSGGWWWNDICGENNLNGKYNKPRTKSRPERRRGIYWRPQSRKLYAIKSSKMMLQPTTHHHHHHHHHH
Procedure: (§1) All kinetic binding experiments were performed at 25° C. or 37° C. on a BIACORE™ T200 label-free molecular interaction instrument (GE Healthcare) using a CM5 sensor chip. Briefly, an antigen capture surface was generated by covalently coupling either an anti-mouse IgG-specific antibody (anti-mFc; GE Healthcare; catalog #BR-1008-38) or an anti-pentahistidine-specific antibody (Qiagen; catalog #34660) to the surface of a CM5 sensor chip using a standard amine coupling method.

rANGPTL3(17-240)-mmH = target: T2, rANGPTL3(17-240)-mmH (Rattus norvegicus)
T2 construct: also called N-terminal coiled-coil domain of ANGPTL3 from Rattus norvegicus with myc-myc-hexahistidine tag
T2 chain: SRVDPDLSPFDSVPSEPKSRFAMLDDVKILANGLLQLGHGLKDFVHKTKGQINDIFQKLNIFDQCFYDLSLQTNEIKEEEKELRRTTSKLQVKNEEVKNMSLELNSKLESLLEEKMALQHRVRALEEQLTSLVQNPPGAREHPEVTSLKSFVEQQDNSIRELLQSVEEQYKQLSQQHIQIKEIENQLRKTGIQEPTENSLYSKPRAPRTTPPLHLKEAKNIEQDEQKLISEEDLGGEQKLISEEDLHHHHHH
Procedure: as §1

mANGPTL3(17-240)-His = target: T3, mANGPTL3(17-240)-His (Mus musculus, UniProt Q9R182 17-240)
T3 construct: also called N-terminal coiled-coil domain of ANGPTL3 from Mus musculus with a hexahistidine tag; Mouse ANGPTL3 (17-240)-His
T3 sequence: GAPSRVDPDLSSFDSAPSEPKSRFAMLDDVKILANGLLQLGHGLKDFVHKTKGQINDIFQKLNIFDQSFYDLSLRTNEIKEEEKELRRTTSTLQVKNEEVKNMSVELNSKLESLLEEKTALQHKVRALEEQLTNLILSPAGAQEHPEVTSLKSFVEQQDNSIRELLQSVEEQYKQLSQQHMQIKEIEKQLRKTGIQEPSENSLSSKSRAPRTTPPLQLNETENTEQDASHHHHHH
Procedure: as §1

MfANGPTL3(17-170)-mmH = target: T4, MfANGPTL3(17-170)-mmH (Macaca fascicularis)
T4 construct: also called N-terminal coiled-coil domain of ANGPTL3 from Macaca fascicularis with myc-myc-hexahistidine tag; Monkey ANGPTL3 (17-170)-mmH
T4 chain: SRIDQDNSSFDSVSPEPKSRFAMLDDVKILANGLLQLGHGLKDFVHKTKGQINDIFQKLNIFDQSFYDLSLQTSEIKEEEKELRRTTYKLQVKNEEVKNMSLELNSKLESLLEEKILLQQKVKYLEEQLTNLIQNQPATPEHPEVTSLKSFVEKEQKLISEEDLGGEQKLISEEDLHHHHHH
Procedure: as §1

hANGPTL3(17-170)-His = target: T5, hANGPTL3(17-170)-His (human, UniProt Q9Y5C1 17-170)
T5 construct: also called N-terminal coiled-coil domain of hANGPTL3 with a C-terminal hexahistidine tag; Human ANGPTL3 (17-170)-His
T5 sequence: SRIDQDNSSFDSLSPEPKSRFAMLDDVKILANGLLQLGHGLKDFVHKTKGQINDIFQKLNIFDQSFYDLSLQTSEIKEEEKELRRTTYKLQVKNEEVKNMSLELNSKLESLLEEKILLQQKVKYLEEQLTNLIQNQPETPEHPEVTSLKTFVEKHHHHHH
Procedure: as §1

hANGPTL3(17-460)-His = target: T6, hANGPTL3(17-460)-His (human, UniProt Q9Y5C1 17-460)
T6 construct: Bought protein (R&D Systems); also called full-length mature human ANGPTL3 with a C-terminal decahistidine tag; Human ANGPTL3 (17-460)-His
T6 sequence: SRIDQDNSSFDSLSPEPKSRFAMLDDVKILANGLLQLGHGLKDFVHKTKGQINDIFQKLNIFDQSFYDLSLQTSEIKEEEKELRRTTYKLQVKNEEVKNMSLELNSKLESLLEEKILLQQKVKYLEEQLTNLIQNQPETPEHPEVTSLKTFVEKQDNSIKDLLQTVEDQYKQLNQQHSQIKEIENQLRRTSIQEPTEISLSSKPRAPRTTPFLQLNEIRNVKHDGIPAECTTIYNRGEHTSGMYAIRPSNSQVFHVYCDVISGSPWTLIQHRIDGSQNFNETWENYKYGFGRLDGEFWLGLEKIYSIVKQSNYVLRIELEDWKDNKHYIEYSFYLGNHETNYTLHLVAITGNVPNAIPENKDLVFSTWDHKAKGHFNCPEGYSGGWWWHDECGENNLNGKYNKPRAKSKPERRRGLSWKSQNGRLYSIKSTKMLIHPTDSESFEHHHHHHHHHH
Procedure: as §1

B1: H4H1276S (antibody, IgG4, V domains shown)
VH: EVQLVESGGGVIQPGGSLRLSCAASGFTFDDYAMNWVRQGPGKGLEWVSAISGDGGSTYYADSVKGRFTISRDNSKNSLYLQMNSLRAEDTAFFYCAKDLRNTIFGVVIPDAFDIWGQGTMVTVSS
VL: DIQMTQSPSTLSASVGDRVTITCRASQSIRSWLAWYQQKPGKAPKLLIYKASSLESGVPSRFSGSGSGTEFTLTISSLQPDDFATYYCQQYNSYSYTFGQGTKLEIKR
Kd (mANGPTL3(17-455)-His): 0.408 nM | koff (mANGPTL3(17-455)-His): 0.000791 s⁻¹ | kon (mANGPTL3(17-455)-His): 1.94e+06 M⁻¹ s⁻¹ | t1/2 (mANGPTL3(17-455)-His): 14.6 min | Kd (rANGPTL3(17-240)-mmH): 0.94 nM | koff (rANGPTL3(17-240)-mmH): 0.00193 s⁻¹ | kon (rANGPTL3(17-240)-mmH): 2.05e+06 M⁻¹ s⁻¹ | t1/2 (rANGPTL3(17-240)-mmH): 6 min | Kd (mANGPTL3(17-240)-His): 1.18 nM | koff (mANGPTL3(17-240)-His): 0.000964 s⁻¹ | kon (mANGPTL3(17-240)-His): 819000 M⁻¹ s⁻¹ | t1/2 (mANGPTL3(17-240)-His): 12 min | Kd (MfANGPTL3(17-170)-mmH): 0.625 nM | koff (MfANGPTL3(17-170)-mmH): 0.00117 s⁻¹ | kon (MfANGPTL3(17-170)-mmH): 1.87e+06 M⁻¹ s⁻¹ | t1/2 (MfANGPTL3(17-170)-mmH): 9.9 min | Kd (hANGPTL3(17-170)-His): 1.52 nM | koff (hANGPTL3(17-170)-His): 0.00241 s⁻¹ | kon (hANGPTL3(17-170)-His): 1.59e+06 M⁻¹ s⁻¹ | t1/2 (hANGPTL3(17-170)-His): 4.8 min | Kd (hANGPTL3(17-460)-His): 1.29 nM | koff (hANGPTL3(17-460)-His): 0.000812 s⁻¹ | kon (hANGPTL3(17-460)-His): 632000 M⁻¹ s⁻¹ | t1/2 (hANGPTL3(17-460)-His): 14.2 min
